According to the supplement of paper PMC12636428:

Tested on: Saccharomyces cerevisiae
Assay: transcriptional activation domain activity (GFP:mCherry ratio, weighted mean of sorted bins, harmonized to initial dataset scale) (arbitrary fluorescence ratio units); higher = stronger transcriptional activation
Conditions: beta-estradiol 1 µM; induction time 4 h
Method in brief: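 Barcoded protein tiles fused to an estradiol-inducible synthetic transcription factor were integrated at the yeast URA3 locus, in diploids carrying a GFP reporter. Cultures were diluted 1:5 into SC with 1 uM beta-estradiol, held 4 hours at 30 °C, sorted into 8 bins by GFP:mCherry ratio, and barcodes sequenced. Tiles under 50 reads were discarded. Activation activity is the read-weighted mean of bin median fluorescence, averaged across barcodes, then linearly mapped onto the initial dataset scale.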

Sequence | transcriptional activation domain activity
IVQLHLKIHGAWLGRIRCDHCPKFHIEKFCWAACGGPQGLRRIIEHYLKVLNW | 39000
IVRIVFFPTIFSFFNFFAVWFYQRSWILLPFPELYECFALVAMFYLLVVYVTP | 46200
IVSPFSTSVRSVSSCVELIRQGRGALATSITGYKYLILYGQVMMMLKIFTFYF | 55600
IVVVVSPGVLHVDVGITILYGEVIVGLRTGTKDVLLRWKIVQVERRWLGYTPE | 30500
IVVYGANGGNLGENCNREFSERCVPVFRARATVFAELTWLILVSAWEFKSIRR | 51000
IWCRKCNLGSILYVLARYGTLNCLLVSSLSLVTGFVVNMIFHIILGLLLARAY | 65100
IWDLWTFGGLDFWGLGFGIWDLGLGFGDWDFIYPPPLPVSVFFLLFLSFGVCW | 56900
IWGSANTLPKYLYFISRYFGLLGQLVVSTNLVPMFCFDYLVWSFGFLFTLILS | 87200
IWIIQCCVLPLCLHFGSIFPGLQYTLLAFLPYYCCFSHYFPVLIPVLILICFI | 63700
IWMILEIARSTLVFFRIYNFGHFVYNLVTKFDLMAIIPLLLVTLLPQIWFFCF | 33800
IWRCTLFLLYGGHFEAALTCIRASASIGTFRDINVACGRNVAFFLSVLIEKKR | 63000
IWRRQQVELWCNYRVPGRQWLFGHKRLRHVIHLIPGRTHLSLYSSVDRIFCLH | 48600
IWSFVILLRETVLCGSIVLAISATSDYFYYGLWTFPPYQWLNFNLTQSLAVFY | 66800
IWVAPWNAGKILFFLIRYLVFVDTSVSIVYLAGGPLTLSRCHTLFGWFTASFT | 74800
IWVHHVAYVRNCLAQLIFTWLDEYWRPLSDACILPRLRSWVLSRFRDAQLVQG | 78700
IYAYRESWGIDGAVFCKSWMLYWLLMDIHWQVMETLIACYIPMQFSPFFVFPW | 61700
IYCAGWVFRYFFLFPYRLSLLLAATLFFFLALPIVLYFKNDEWQRWLFRFYCQ | 57500
IYESALQTEHHKQGIGRSIAEAVKNRELSGFDQFQQIISFCLCVLKQLYRRFT | 37600
IYETVNTITELSCLLPGGPWFPHARELWWYASEPAGVRYVAVLLSPTLRSLRL | 69700
IYFTFRILLYAIWCALAKVHRWNKTTLWNTLCKYLSRLVAATKSRTKTHAPWL | 49300
IYGSTAKPFPYTEGYHFLLKFVTEKFEKAEVLRIVRALGLFRPSLIALQMPLT | 42800
IYIFPINTTIASFALGYLSIFYLIYAILTVLPTFFFDCPYGTPFSALMWRISH | 62300
IYTNRFVSGDDGSNSKTKNLDSNMFSNDFNFENQFDEQVSEFCSKMNQVCGTR | 74400
IYVELYFILSSIWFSRIYYMFGFLFLCYGLMIMTCATVTILMVYFLLCAENYN | 58300
IYVIGCQPRFKTKLVEDKAEKRKCRIVLVPIFSETGVLVLLNIRTLEVRTVRF | 51700

Sequence | transcriptional activation domain activity
IYVLHLFSTFPIFPLFPLFPIFLNFFIFLILILIFPIFPIFPIFPIFLIFPIF | 52900
IYYDPASRDKVYCSRAPIAYVYKRLVRMALESRFVQVAPVALKVLGIVLVMLY | 62500
KAAAAPKKKKAGVSDEEEKEEEEAESTPVDEDPKPKTKKLAAAKKPAAAAAAK | 33700
KAAAMKKVLAKPADKTKKTSSAKNDTKKAAAKAAATKPKARTTKTAKAAAATK | 7370
KAAAVVASDSDEPVEKPKPRRRNSTSSAKSGKSTKSNRSSRDKTAAGVAAGAG | 20700
KAAEKPAPAVSPSAPAAKAVHHNNNSNAKKQEQQQQQRAKSPAAASASAPAPA | 16600
KAAKRGRNARRKRKDKPKGQDHEDEKSKINDDELEYASPSNATVTNGPQTSPD | 14300
KAAPAPAASGDEGGEDEDEEDGDAVARRHQSKRSRRGIVVEESDEEDEGEPAA | 41100
KAAPAQDGAAAGERNGAEAAEAGEEEEEAEGEAAAEPGAEAAEKPAPKPAAAA | 42100
KAAPEDKEPEPVAVSYKVNDTVMAKWVSGDKGYYPARITSVTGSSTDPIYVVK | 19800
KAAVPKTKAAPKAKAVKAPKEKKAAAPKAKAAAKPKAAPKAKKAAAPKAAPAV | 29000
KADDEKPKKAARGAKAKKEEDEDEEADEEQEEPKKPARKPRAKAEPKKAPAKS | 23100
KADDGGGDEAEKPKKATSKKPKKENDDAMDVDEEAQERPKPKPRPKPKPKAKE | 22000
KADEDAQTGEKRKAEEPAADTNGEKSKDEEPASKKAKTDEEEKTAGKAKKPGR | 24000
KADEPAVEENGAKEDDSAKKQKTNGETETEKKGKGRGRPKKADGEKKAPAKKR | 21400
KAEAEAEAQPIAAAKTPRTRKAAAKPKAAAPSPTPAIPKTQAPTASAPAAPLP | 18300
KAEPKKEAAKGPRNVSGVTVDDKKEGKGKAAKKGDRVEMRYIGKLKSGKVFDS | 36900
KAETTAAKDAGAEPEAKPMRGGGREKKRDAEEAVKKEAVKEKPSKGSTKPASK | < 6570
KAFRLVHGILQRSHPRTLDRLFSSMLWLLHNGLTEVALLLRDYIRSLSIRLTS | 53000
KAGCGYILGHINIFQPINWIFVVSAKVFPVDYVLFLLLVFFLFSASVVGVATV | 32300
KAGEAKTATSKGAGDEEEGTQKKKGTSSRKKATGTMGNGEVEIGNAGSSEKKK | 36200
KAGGTGAKQEKEPQGEGRETEGNQAKANRRTKGGTARGEGAAGGRRRRKGEES | 35000
KAGKKKYVESVNGRRREVLVIVGKDGKTKRKTRWLDPESAATETGVPWGLEVP | 28800
KAKAGADGDAAPKKKKAASKKDSNGSDAEDSDGEAKPKPKLKKKAAAAGKAKA | 29400
KALLLLLRIAHLQFNKIPLTLIFDQFLNVAILCDMYSKGNEKYLLISWVFHRE | 28800

Sequence | transcriptional activation domain activity
KALVDAIITSHNIIIVHNQLIWFPNIVFLMSLIPLHIAAMNLWMALDMLFCFC | 52900
KAMGLLDSARIVSWHVSYSLVHLPSWISFAIIYKVRLFVKTNILILLVVHVLF | 41600
KANSKAKLSKKDESSDESESDSEDEKPAPKANGKQVCCAVPLAIFFIALLTKY | 57400
KAPTAPRKAGIAAKAGEKEAAAGAAAKVAEVTEAAARRGRGRPKKAQEELTAS | 50500
KAQDDKEADDSPKKKPAKRSRKKAAADDGDDDEEEAQPAKKKAKGGRKSKAAA | 39400
KARKRTRERKKEKEGRARTKGEGDRYEGRKFEISGTVEVKRERCEGTRRTKPK | 9070
KARPRQEGGQRQESGKKRKRDEDEGGDGQEGGEGGRKRRRKRKGAGGADDGVQ | 33400
KARQDKEPAMTQKDLATKINEKPSVINDYESGRAIPNQQVLGKLERALGVKLR | 40000
KARQEKQPPMTQKDLATKVNEKPSVINDYESGRAVPNQQVLSKLERALQVKLR | 22500
KASARKKRAPKKSDEGKRGEKEGNRSANGSNDEDDDRDSSSSSSSNDEATSRS | 11200
KASGSARESVDGEEDKEEAKEKNKENVKVEEKLDADEGEKESKVKAEAAKEPG | 20300
KASKSKKRKHHHHKSAVSSPEASDADTASQSSKRSKKSKRRHADADARAAANG | 36700
KASLGTGDAGKATTKSASAAVKSKAAAKSAKASDSKGGGEDEEEDGGAPKKKK | 18900
KATEYCLYFFGLGPALFKSLLPDKYWQHYCMLVHAVRILVQRRITQTQMLEAY | 49300
KATYHAMLHICRDIAKETLFFFHLVQEHPDDLPLVQSVLILLISCISRVVCTL | 55000
KAVAALRRQTGQEAVEVEVAPIRQKRRETVGATVTTARPVAGSQTGPALTQVT | 14800
KAVFKALPILVVASVGCASTNLLIRTVIIWRKEHLVISVLLLLYVGHWTILFV | 32100
KCCVHVHQVYPYFFVEYFGKMRLRSGQLSALTFGAELQYTRVLIHVGVHFYGF | 47400
KCLRLAIHIPLYPLFRTALVLRVQPSNAPLIRSVKDFLIYYLHDLQRFFILSP | 70000
KCSKVEPWVINVAAVFPSVFLLGFVENFFWFRRMMLGKGCLRFGTVCWALLFI | 65800
KDATGDDAARARGGDKGGEREKAGGKGGRRGPKEKEKGKQKAKESKGAAGFAE | 55600
KDDEKKDRHRSRRDRGDRDKEDERRRRKRRSRSRSNHRHGHERRRDRSRSREG | 17100
KDDRDDRDRRGGDDRREDREERRGGEDRGEDRGGEGRRDSRQEGGANREPSPS | 23700
KDEEEREGEKRKEGKEESDTAVVKHRRRYRSRSKDRKRDGSRERRHRERSREG | 30600
